Target: MglA^+ of Thermus thermophilus (Thermus thermophilus)
Test: fluorescence polarisation

MglB of Thermus thermophilus (natural protein)
fold higher affinity for MglA^+/mGppNHp than for MglA^+/GDP: 60 fold

— publication PMC2910265
